Biological target: Presenilin-1 (PS1) (human, UniProt P49768 1-467)
Assay: co-immunoprecipitation with anti-PS1/NTF R222 from transfected A431D cell extracts, Western blot with C36
Experimental: Immunoprecipitations (IPs), immunoblotting, immunofluorescence and confocal microscopy. For WB analysis of cell extracts, cells were washed with PBS and then solubilized in RIPA buffer. For IPs cells were solubilized in Hepes buffer (25 mM Hepes [pH 7.4], 150 mM NaCl, 1× Complete protease inhibitor cocktail, Roche) containing 1% digitonin (IPs with I-R222 and PI-R222 antibodies) or 1% Triton X-100 (IPs with β-catenin and desmoglein antibodies). Following centrifugation at 17,000×g for 10 min, supernatants (1 mg protein) were pre-cleared with protein A- or protein G-agarose (Pierce) for 2 hours. Supernatants were then incubated with antibodies overnight at 4° C. and treated for 2 hours with protein A-agarose (polyclonal antibodies) or with protein G-agarose (monoclonal antibodies). IPs were washed with Hepes buffer containing either 1% digitonin or 1% Triton X-100 and analyzed by SDS-PAGE. Immunofluorescence and confocal microscopy was performed as described by Georgakopoulos et al., (1999). Briefly, cells were plated on 22×22 mm collagen-coated glass coverslips, fixed in cold methanol for 10 min at −20° C. […]

- binding result: no binding
B1: E-cadherin mutant GGG759-761AAA (receptor)
chain: DWVIPPISCPENEKGPFPKNLVQIKSNKDKEGKVFYSITGQGADTPPVGVFIIERETGWLKVTEPLDRERIATYTLFSHAVSSNGNAVEDPMEILITVTDQNDNKPEFTQEVFKGSVMEGALPGTSVMEVTATDADDDVNTYNAAIAYTILSQDPELPDKNMFTINRNTGVISVVTTGLDRESFPTYTLVVQAADLQGEGLSTTATAVITVTDTNDNPPIFNPTTYKGQVPENEANVVITTLKVTDADAPNTPAWEAVYTILNDDGGQFVVTTNPVNNDGILKTAKGLDFEAKQQYILHVAVTNVVPFEVSLTTSTATVTVDVLDVNEAPIFVPPEKRVEVSEDFGVGQEITSYTAQEPDTFMEQKITYRIWRDTANWLEINPDTGAISTRAELDREDFEHVKNSTYTALIIATDNGSPVATGTGTLLLILSDVNDNAPIPEPRTIFFCERNPKPQVINIIDADLPPNTSPFTAELTHGASANWTIQYNDPTQESIILKPKMALEVGDYKINLKLMDNQNKDQVTTLEVSVCDCEGAAGVCRKAQPVEAGLQIPAILGILGGILALLILILLLLLFLRRRAVVKEPLLPPEDDTRDNVYYYDEEAAAEEDQDFDLSQLHRGLDARPEVTRNDVAPTLMSVPRYLPRPANPDEIGNFIDENLKAADTDPTAPPYDSLLVFDYEGSGSEAASLSSLNSSESDKDQDYDYLNEWGNRFKKLADMYGGGEDD
notes: whole, on cells; Numbering on the unprocessed human E-cadherin precursor; Assayed in cell extracts by co-immunoprecipitation; also called mutant E-cadherin

From patent publication US20050245453A1 (MOUNT SINAI SCHOOL OF MEDICINE OF NEW YORK UNIVERSITY, published 2005)
